In the nanobody polyreactivity screen of Harvey et al. (2022):

Assay: yeast display, Sf9 membrane polyspecificity reagent, FACS + sequencing; frameworks hold sequencing errors
Method in brief: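 Nanobodies came from a synthetic yeast display library in Saccharomyces cerevisiae BJ5465, induced with galactose for 36–48 hours and stained for 1 hour at 4 °C with 10% biotinylated, detergent-solubilized Sf9 membrane reagent. Cells were enriched on streptavidin microbeads and then FACS-sorted, with low and high (top ~1%) gates set on anti-HA fluorescence for expression and streptavidin fluorescence for reagent binding. Each polyreactivity label reflects the gate a clone came from. Genes were amplified by colony PCR, sequenced by MiSeq 2 × 250 and filtered by CDR length.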

| Sequence | polyreactivity (PSR sort gate) |
| --- | --- |
| QVQLVESGGGLVQAGGSLRLSCAASASISDSYAMGRYRQAPGKERELVAAITSGDSTYYADSVKGRFTISRDNAKNTLYLQMNSLKPEDTAVYYCAKRVSRGRGYGFTDWSEYDYWGQGTQVTVSS | low polyreactivity |
| QVQLVESGGGLLQAGGSLRLSCAASGFIFRTYAMGWYRQAPGKERELVARISWSGGSTYYADSVKGRFTISRDNAKNTVYLQMNSLITEDTAVYYCARLGTLYESIEYDYWGQGTQVTVSS | low polyreactivity |
| QVQLVESGGGLVQAGGSLRLSCAASGFIFVKYAMGWYRQAPGKERELVAAISWSGGTTYYADSVKGRFTISRDNANNTVYLQMNSLKPEDTAVYYCAAEYYTGYFKYDYWGQGTQVTVSS | high polyreactivity |
| QVQLVESGGGLVQAGGSLRLSCAASGSLFRINAMGWYRQAPGKERELVAAITGRVGSTYYADTVKGRFTISRDNAQNTVYLQMNSLKPEDTAVYYCAARAGSSRYTREYRYDYWGQGTQVTVSS | high polyreactivity |
| QVQLQESGGGLVQAGGTLRLSCAASGSFSADEDMGWYRQAQGKEREFVAGISVGGNTNYADSVKGRFTISRENAKNTVYLQINSLKPEDTAVYYCAVLQDVYDALDYWAQGTQVTVSS | high polyreactivity |
| QVQLVESGGGVVQAGGSLRLSCAASGRIFNWYAMGWYRQAPGKEREFVAAINWNGDSTHYADSVKGRFTISRDNAKNTVYLLMNSLKPEDTAVYYCNARVFVTRSYYWGQGTQVNVSS | low polyreactivity |
| QVQLVESGGGLVQAGGCLRLSCAASGFIFRRNALGWYSEAPGKERELVAAMGSRGTATDYADSVKGRFTISRDNAKKTVYLQMNRLNPEDTAVDYCAKSVVAWGPNFRPNHTRGYYWGQGTQATVSS | low polyreactivity |
| QVQLVESGGGLVQAGGSLRLSCAASGRTFYGNAMGWYRQAPGKERELVAAISWSGGGTYYADSVKGRFTISRDNAKNTVYLQMNSLKPEDTAVYYCAAQFGRKGSGVWTRPENYWGQGTQVTVSS | high polyreactivity |
| QVQLEESGGGLVQAGGSLRLSCAASGRTLRVNAIGWYRQAPGKERELVAANSSGGRTNYADSVKGRFTISRDNAKNTVYLQMNSLKPEDTAVYYCAVDRPRFPSRPPYHKYDYWGQGTQVTVSS | low polyreactivity |
| QVHLVESGGGLVQAGGSLRLSCTASGRTFKYNSMGSSRQEPGKERELVAAISSRGGSTYYADSVKGRFTISRDNAKNTVYLQMNSLKPEDTAVYYCAAQFTTRYDWGQGTQVTVSS | high polyreactivity |
| QVQLVESGGGLVQAGGRLRLSCAASGSTFVLNDRGWYRQPPGKEREFVAAIDTSGGTTSYADSVKGRFTISRDNAKNTVYLQMNSLKPEDTAVYYCAALWFTRVHLFDSWGQGPQVTVSS | low polyreactivity |
| HDQLVESGGGLVQAGGSLRLTCAASGFIFGAYTMGWYRQAPGKERELVAAISWSGDSTYYADSVKGRFTISRDNAKNTVYLQMNSLKPEDTAVYYCAAVWYWSGFDYWGQGTQVTVSS | high polyreactivity |
| QVQLVESGGGLVQAGGSLRLSCAASGRIFYQNPMGWYRPAPGKERELVADISSGGSTYYADSVKGRFTISRDNAKNTVYLQMNSLKPEDTAGYYCNTPSGPGTVGSYRRIWYGYWGQGSQVTVSS | low polyreactivity |
| QVQLVESGGGLVQAGGSLRLSCAASGFTFWRYTMGWYRQAPGKERELVAAISGGTTTYYADSVKGRFTISRDNAKNTVYLQMNSLKPEDTAVYYCAAYSQRARTYDYWGHGTQVTVSS | high polyreactivity |
| QVQLVESGVGLVQAGGRLRLSCAASGSIFASSAMGWYRKAPGKERELVAVINSYDRTNYADSVKGRFTISRDNAKNTVYLKMNSLKPEDTAVYYCNADAIRIIPAYDYWGQGTQVTVSS | low polyreactivity |
| QVQLVESGGGLVQAGGSLRLSCAASGSILGYYAMGWYRQAPGKERELVAAITWRGGRTYYADSVKGRFTISRDNAMNTVYLQMNSLKPEDTAVYYCAKVPSGYKGYDYWGQGTQVTVSS | high polyreactivity |
| QVQLVESGGGLVQAGGSLRLSCAASGRTIPYKSMGWYRQAPGKERELVAAITSGGTTNYADSVKGRFTISRDNAKNTVYLQMNSLKPVDTAVYYCAADSDASSQFRRDYWGQGTQVNVSS | low polyreactivity |
| QVQLVESGAGLFQAGGRLRLSCAASGRTFQVYAMAWYRHAPGTERELVAAIDLGGGSTYYADSVKGRFTISRDNAKNTVYLQMNSLKQEDTAVYYCAADVGLRFDYWGQGTQVTVSS | high polyreactivity |
| QVQLVESGGGLVQAGGSLRLSCAASGRIFVGNAMGWYRQAPGKERELVAAISRSGGRTYYADSVKGRFTISRDNAKNSVYLQMNSLKPEDTAVYYCAAVSLSGRYGDYDYWGQGTQVTVSS | high polyreactivity |
| QVQLVESGGRLVQAGRSLRLSCAASGSTFYLYAMGWYRQAPGKERELVASISIGGSTNYADSVKGRFTISRDNAKNTVYLQMNSLKPEDTAVYYCNADYYYVRTVRRLGYWGQGSQVTVSS | low polyreactivity |
| QVQLVESGGGLVQAGGSLRLSCAASGGIIAINAMGWYRQAPGKERELVAAISWGDGITYYADSVKGRFTISRDNAKNTVDLQMNSLKPEDTAVYYCNARLLSGPGYDYWGQGTQVTVSS | low polyreactivity |
| QVQLVESGGGLVQAGGSLRLSCAASGRIVGRNAMGWYRQAPGKERELVAAISSGGGRTYYADSVKGRFTISRDNAKNTVYLQMNSLKPEDTAVYYCNAGWRGRFYYWGQGTQVTVSS | high polyreactivity |

| Sequence | polyreactivity (PSR sort gate) |
| --- | --- |
| QVQLVESGGGLVQAGGSLRLSCPASGSTFLFNAMGWYRQAPGKERELVAAIRSDGSTDYADSVKGRFTISRDNAKTTVYLQMNSLKPEDTAVYYCAAESITGYVSDFDYWGQGTQVTVSS | low polyreactivity |
| HVQLVESGGGLVQAGGSLRLICAASVRIFADNAMGWYRQAPGKERELSAAISESGGSTYYADSVKGRFTISRDNAKNTVYLEMNSLKPEDTAVYYCAATAEVHRAEPYDYWGQGTQVTVSS | low polyreactivity |
| QVQLVESGGGLVQAGGSLRLSCAASGSIFRSSDMGWYRQAPGKERELVAAISDSTGTTYYADSVKGRFTISRDNAKNTVYLQMNSLKPEDTAVYYCAADYFWYRSGRYHYWGQGTQVTVSS | high polyreactivity |
| QVQLVESGGGLVQAGGSLRLSCAASGRTFGTYALGWYRQAPGKERELVASITSGDSTNYADSVKGRFTISRDNAKNTVYLQMNRLKPEDTAVYYCNARGDVIVTPPKFSFNYEYWGQGTQVTVSS | low polyreactivity |
| QVQLVESGGGLLQAGGSLRLSCAASGSTFVYYAMGWYRQAPGKERELVASINSGGSTYYADSVKGRFRISRDNEKNTVYLQMNSLKPEDTAVYYCAATSIPPSVHLQDPTYDYWGQGTQVTVSS | low polyreactivity |
| QVQLVESGGGLVQAGGSLRLSCAASGRTFWRNAMGWYRQAPGKERELVADITTSGARTYYADSVKGRFTISRDNAKNTVYLQMNSLKPEDTAVYYCAKGPYTPWPKITGYNYWGQGTQVTVSS | high polyreactivity |
| HVQLGESGGGLVQAGGSLRLSCAASGRNFERNVMGWYRPATGKERELVAGIRSDGDRTYYADSVKGRFTISRDNSKNTVYLQLKSLKPEDTAVYYCAVVWYDKGRQTRYNYWGQGTQVTVSS | high polyreactivity |
| QVQLVESGGGLVQAGGSLSLSCAASGPTFTQNVMGWYRQAPGKERELVAGISSGDITNYADSVKGRFTISRDNAKNTVYLQMNSLKPEDTAVYFCTYYGKSGGYRYTYYYWGQGTQVTVSS | high polyreactivity |
| QVQLVESGGGLVQAGGSLRLSCAASGRTLNNNAMGWYRQAPGKERELVAAISRSGGRTYYADSVKGRFTISRDNAKNTVYLQMNSLKPEDTAVYYCAAVNIRFGYADRFYYVYRGDEWGQGTQVTVSS | high polyreactivity |
| QVQLVESGGGLVQAGGSLRLSCAASGFTFNYYAMGWYRQAPGKERELVAAISRSGGNTYYADSVKGRFTISRDNAKNTVYLQMNSLKPEDTAVYYCAAYLRSYVRYYYWGQGTQVTVSS | high polyreactivity |
| QVQLVESGGGLVQAGGSLRLSCAASGFTFGRYAMGWYRQAPGKERELVAAITWSGGSTYYADSVKGRFTISRDNAKNTVYLQMNSLKPEDTAVYYCNRLSNNREYDYWGQGTQVTVSS | high polyreactivity |
| QVQLVESGGGLVQAGGSLRLRCAASGSIFARNAMGWYRQAPGKERELVASITWSGASTFYADSVKGRFTISRDNAKYTVYLQMNSLKPDVTAVYYCAATDQKLSLDYSSYEYWGQGSQVTVSS | low polyreactivity |
| QVQLVESGGGLVQAGGSLRLSCAASGSIFWWNTMGWYRQAPGKERELVAAITFSGGSTYYADSVKGRFTISRDNAKNTVYLQMNSLKPEDTAVYYCNADGWVSVRGTWSDGGYWGQGTQVTVSS | low polyreactivity |
| QVQLVESGGGLVQAGGSLRLSCAASGSIFWSNAMGWYRQAPGKELELVAAITTSDGSTYYADSVKGRFTISRDNAKNTVYLQMNSLKPEDNAVYYCAADASTWYTEEYWGQGTQVTVSS | low polyreactivity |
| QVQLVESGGGLVQAGGSLRLSCAASGFIFVTYAMGWYRQAPGKERELVAAITNSGGTTYYADSVKGRFTISRDNAKNTVYLQMNSLKPEDTAVYYCNKPYGAETAHREFDYWGQGTQLTVSS | low polyreactivity |
| QVQLVESGGGLVQAGGSLRLSCAASGSISYIYTMGWYRQAPGKERELVAAISGSGSTYYADSVKGRFTISRDNAKNTVYLQMNSLKPEDTAVHYCNAGSGGLNFQEVPQGYDYWGQGTQVTVSS | low polyreactivity |
| QVQLVESGGGLVQAGGSLRLSCAASGSIFDTYAMGWYRQAPGKEREVVAAITWSGSSTYYADSVKGRFTISRDNAKNTVYLQMNSLKPEDTAVYYCAAEVSGKYFLFDYWGQGTQVTVSS | high polyreactivity |
| QVQLVESGGGLVQEGGSHRLSCAASASTFWSYTMGWYRQAPGKERELVAAISPSGGSTSYADSVKGRFTISRDHAKNTVYLQMNSLKPEDTAVYYGAADDRYGSRYSYWGHGTQVTVSS | high polyreactivity |
| QVQLVESGGGLVQAGGSLRLSCDASGLTFSFYVMGWYRQAPVKERELVAAISRSGTSTYYSDSVKGRFTISRDNAKNTVYLQMNSLKPEDTAVYYCADRGRWLYYLYELDYWGQGTQVTESS | high polyreactivity |
| HVQLVESGGGLVQARGSLRLSCAASGSTFYAYDRGWYRQAPGKERELVAAISSTGGRTDYADSVKGRFTISRDNSKNTVYLQMNSLKPEDTAVYYCAARQLSSHYDYWGQGTQGTVSS | low polyreactivity |
| QVQLVESGGGLVQAGGSLRLSCAASGSIFDPYAMGWYRQAPGKERELVAAITASGSSTYYADSVKGRFTISRDNAKNTVYLQMNSLIPEDTAVYYCAADRANWEYLLSCLGYDYWGQGTQVTVSS | low polyreactivity |
